Reference: the supplement of paper PMC10567573

B1: TRIM55 (parent)
chain: FQASNPYLPTRGGTTMASGGRFRC

Variants of: B1
Assay: protein stability index of a GFP-peptide fusion (GPS, HEK-293T) (PSI 1-6); higher = more stable
Conditions: c terminus: a fixed tail appended
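Note: lentivirally expressed fusions sorted by FACS into six bins by GFP to DsRed ratio, PSI derived from sequencing read proportions per bin multiplied by bin number.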

Variant	protein stability index
FQASNPYLPTRGSTTMASGGRFRC [G13S]	1.75
FQASNPYLPTRGMTTMASGGRFRC [G13M]	2.65
FQASNPYLPTRGWTTMASGGRFRC [G13W]	3.33
FQASNPYLPTRGQTTMASGGRFRC [G13Q]	2.68
FQASNPYLPTRGFTTMASGGRFRC [G13F]	1.22
FQASNPYLPTRGRTTMASGGRFRC [G13R]	1.7
FQASNPYLPTRGDTTMASGGRFRC [G13D]	1.64
FQASNPYLPTRGCTTMASGGRFRC [G13C]	1.65
FQASNPYLPTRGPTTMASGGRFRC [G13P]	1.7
FQASNPYLPTRGKTTMASGGRFRC [G13K]	2.74
FQASNPYLPTRGTTTMASGGRFRC [G13T]	1.65
FQASNPYLPTRGITTMASGGRFRC [G13I]	1.99
FQASNPYLPTRGYTTMASGGRFRC [G13Y]	1.51
FQASNPYLPTRGATTMASGGRFRC [G13A]	1.68
FQASNPYLPTRGVTTMASGGRFRC [G13V]	1.9
FQASNPYLPTRGETTMASGGRFRC [G13E]	1.46
FQASNPYLPTRGNTTMASGGRFRC [G13N]	1.22
FQASNPYLPTRGLTTMASGGRFRC [G13L]	3.49
FQASNPYLPTRGHTTMASGGRFRC [G13H]	2.32
FQASNPYLPTRGGTTCASGGRFRC [M16C]	1.77
FQASNPYLPTRGGTTEASGGRFRC [M16E]	1.12
FQASNPYLPTRGGTTAASGGRFRC [M16A]	1.57
FQASNPYLPTRGGTTDASGGRFRC [M16D]	1.65
FQASNPSLPTRGGTTMASGGRFRC [Y7S]	3.18

Variant	protein stability index
FQASNPILPTRGGTTMASGGRFRC [Y7I]	2.83
FQASNPHLPTRGGTTMASGGRFRC [Y7H]	3.36
FQASNPVLPTRGGTTMASGGRFRC [Y7V]	3.13
FQASNPELPTRGGTTMASGGRFRC [Y7E]	3.2
FQASNPKLPTRGGTTMASGGRFRC [Y7K]	2.91
FQASNPRLPTRGGTTMASGGRFRC [Y7R]	3.25
FQASNPALPTRGGTTMASGGRFRC [Y7A]	3.52
FQASNPNLPTRGGTTMASGGRFRC [Y7N]	3.4
FQASNPDLPTRGGTTMASGGRFRC [Y7D]	3.76
FQASNPTLPTRGGTTMASGGRFRC [Y7T]	3.27
FQASNPFLPTRGGTTMASGGRFRC [Y7F]	2.43
FQASNPLLPTRGGTTMASGGRFRC [Y7L]	1.9
FQASNPGLPTRGGTTMASGGRFRC [Y7G]	3.29
FQASNPPLPTRGGTTMASGGRFRC [Y7P]	3.54
FQASNPMLPTRGGTTMASGGRFRC [Y7M]	2.68
FQASNPQLPTRGGTTMASGGRFRC [Y7Q]	3.45
FQASNPCLPTRGGTTMASGGRFRC [Y7C]	3.15
FQASNPYLITRGGTTMASGGRFRC [P9I]	1.89
FQASNPYLKTRGGTTMASGGRFRC [P9K]	2.09
FQASNPYLRTRGGTTMASGGRFRC [P9R]	2.1
FQASNPYLTTRGGTTMASGGRFRC [P9T]	1.73
FQASNPYLGTRGGTTMASGGRFRC [P9G]	1.63
FQASNPYLDTRGGTTMASGGRFRC [P9D]	2.24
FQASNPYLFTRGGTTMASGGRFRC [P9F]	1.5

Variant	protein stability index
FQASNPYLATRGGTTMASGGRFRC [P9A]	1.14
FQASNPYLMTRGGTTMASGGRFRC [P9M]	1.83
FQASNPYLYTRGGTTMASGGRFRC [P9Y]	1.88
FQASNPYLNTRGGTTMASGGRFRC [P9N]	1.85
FQASNPYLWTRGGTTMASGGRFRC [P9W]	2.09
FQASNPYLCTRGGTTMASGGRFRC [P9C]	2.04
FQASNPYLSTRGGTTMASGGRFRC [P9S]	1.7
FQASNPYLVTRGGTTMASGGRFRC [P9V]	2.2
FQASNPYLHTRGGTTMASGGRFRC [P9H]	1.86
FQASNPYLQTRGGTTMASGGRFRC [P9Q]	1.72
FQASNPYLETRGGTTMASGGRFRC [P9E]	2.17
FQASNPYLLTRGGTTMASGGRFRC [P9L]	2.65
FQASNEYLPTRGGTTMASGGRFRC [P6E]	2.26
FQASNSYLPTRGGTTMASGGRFRC [P6S]	1.65
FQASNYYLPTRGGTTMASGGRFRC [P6Y]	2.42
FQASNWYLPTRGGTTMASGGRFRC [P6W]	1.93
FQASNAYLPTRGGTTMASGGRFRC [P6A]	1.96
FQASNCYLPTRGGTTMASGGRFRC [P6C]	3.1
FQASNGYLPTRGGTTMASGGRFRC [P6G]	2.06
FQASNFYLPTRGGTTMASGGRFRC [P6F]	2.12
FQASNIYLPTRGGTTMASGGRFRC [P6I]	1.85
FQASNNYLPTRGGTTMASGGRFRC [P6N]	2.72
FQASNTYLPTRGGTTMASGGRFRC [P6T]	1.93
FQASNLYLPTRGGTTMASGGRFRC [P6L]	2.65

Variant	protein stability index
FQASNQYLPTRGGTTMASGGRFRC [P6Q]	2.48
FQASNHYLPTRGGTTMASGGRFRC [P6H]	2.37
FQASNVYLPTRGGTTMASGGRFRC [P6V]	3.02
FQASNDYLPTRGGTTMASGGRFRC [P6D]	2.07
FQASNKYLPTRGGTTMASGGRFRC [P6K]	3.13
FQASNPYFPTRGGTTMASGGRFRC [L8F]	1.63
FQASNPYPPTRGGTTMASGGRFRC [L8P]	1.92
FQASNPYTPTRGGTTMASGGRFRC [L8T]	2.79
FQASNPYHPTRGGTTMASGGRFRC [L8H]	1.56
FQASNPYVPTRGGTTMASGGRFRC [L8V]	2.03
FQASNPYNPTRGGTTMASGGRFRC [L8N]	2
FQASNPYGPTRGGTTMASGGRFRC [L8G]	2.02
FQASNPYDPTRGGTTMASGGRFRC [L8D]	2.55
FQASNPYEPTRGGTTMASGGRFRC [L8E]	3.39
FQASNPYAPTRGGTTMASGGRFRC [L8A]	1.81
FQASNPYQPTRGGTTMASGGRFRC [L8Q]	2.22
FQASNPYCPTRGGTTMASGGRFRC [L8C]	3.09
FQASNPYIPTRGGTTMASGGRFRC [L8I]	2.79
FQASNPYMPTRGGTTMASGGRFRC [L8M]	1.26
FQASNPYRPTRGGTTMASGGRFRC [L8R]	2.54
FQASNPYKPTRGGTTMASGGRFRC [L8K]	1.14
FQASNPYYPTRGGTTMASGGRFRC [L8Y]	1.59
